Key:
MRIP^724-878 = molecular target: T1, MRIP^724-878 (Homo sapiens, UniProt Q6WCQ1); assay: AUC interaction of MYPT1 peptides (CC, LR and LR mutants) with MRIP^724-878; type: binding; conditions: s*lg(s*) graphs, pH 7.4, 20°C; for main peak position of mixture with MRIP^724-878: excess mutant LR peptide for R992D/R993D and E996K, 50 μM each for others; for binding affinity toward MRIP^724-878, LR mutants: MRIP^724-878 with mutant LR peptide, 50 μM each, compared with wild-type LR
T1 construct: MRIP^724-878 (residues 724–878; CC2-CC4); made in house; host or cells: Escherichia coli BL21 (DE3)
T1 sequence (Q6WCQ1 725-879): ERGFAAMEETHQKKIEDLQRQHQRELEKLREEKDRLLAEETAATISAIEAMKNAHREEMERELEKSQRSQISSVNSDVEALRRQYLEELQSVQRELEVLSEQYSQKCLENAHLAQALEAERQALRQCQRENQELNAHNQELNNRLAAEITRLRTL
Source text: To determine the minimal MRIP-binding region of MYPT1, AUC was employed to examine interactions between sub-domains of CCLR, CC (residues 924–990) and LR (residues 991–1030) with MRIP^724-878 (Fig 4A). CC is the putative coiled coil domain and LR contains 16 upstream amino acid residues (residues 991–1006) in addition to the leucine repeat (residues 1007–1028). MRIP^724-878 was chosen because of its good fit to a single component, single-species model. […] Global fitting of the mixture to a two-component model produced a good fit and the RMSD of the fit was 0.010 (Fig 4B; Fitting of CC).
The coiled coil is a common protein-protein interaction domain. The MRIP peptides in this study have putative coiled coil domains and are α-helical. In contrast, the MYPT1 peptide, LR is not α-helical even though it contains the leucine repeat. Thus, we hypothesized that charged residues of MYPT1 might participate in the MYPT1/MRIP interaction with its leucine residues. We generated various LR peptides representing mutations in charged residues (Fig 6A) and examined their bindings to MRIP^724-878 (Fig 6B).
Fig 6 Glutamic acids within LR enhance the MRIP-binding affinity. (A) Amino acid sequences of the wild-type LR (WT-LR) and mutant LR peptides. Charged residues are in bold, the leucine repeat is in Italic, and substitution mutations are underlined. (B) Time derivative s*lg(s*) graphs: Line, MRIP^724-878 alone (50 μM); filled-in circles, original mixture of MRIP^724-878/each mutant LR peptide (50 μM each except for R992D/R993D and E996K whose mixtures consisted of excess amount of the mutant LR peptides); open circles, a three-fold dilution of the original mixture. The molar mass of the complex differs slightly from that of MRIP^724-878 dimer (37.9 kDa vs 37.4 kDa), and thus the shift in the main peak position is not easily discernable in many cases.
(§1) The cDNA fragment encoding MRIP peptides were amplified using a full-length MRIP cDNA as a template with the following primer pairs: MRIP^545-878, 5’-[…]/5’[…]; MRIP^724-878, 5’-[…]/5’-[…]; MRIP^724-837, 5’-[…]/5’-[…]. The PCR products were ligated into pCR2.1-TOPO using the TA cloning system and sequenced in both directions. The IMPACT™ (Intein Mediated Purification with an Affinity Chitin-binding Tag) Kit (New England BioLabs) was used to express peptides in bacteria to obtain tag-free peptides. The PCR amplicon encoding MRIP peptides were fused in frame to the chitin binding domain of pTYB12 vector utilizing the NdeI/EcoRI restriction sites. The expression vectors for the MYPT1 peptides, CCLR (residues 924–1030), CC (residues 924–990), and LR (residues 991–1030) were constructed as described: In the reference literature, CCLR and LR were named CCLZ and LZ, respectively. Recombinant peptides were produced in Escherichia coli strain BL21 (DE3) and purified using chitin beads according to the manufacturer's protocol. For further purification, the eluent from chitin beads was loaded on a Vydac C8 reversed phase column and subjected to HPLC using an acetonitrile gradient. Purity and identity of the peptides were confirmed by polyacrylamide gel electrophoresis (PAGE) and mass spectrometry. For the mutagenesis study of LR, the wild-type and mutant LR peptides were synthesized, purified by reverse-phase HPLC, and lyophilized to dryness at the peptide core in Boston Biomedical Research Institute.
Sedimentation velocity experiments were done on a Beckman Instruments Optima XL-I analytical ultracentrifuge equipped with Rayleigh optics. The cells were equipped with sapphire windows and 12 mm charcoal-filled Epon centerpieces. Apparent sedimentation coefficient distribution patterns were computed by the time derivative method. Peptides were dialyzed against 50 mM potassium phosphate buffer (pH 7.4) containing 100 mM KCl, and 1 mM DTT at 4°C overnight and then subjected to AUC at 50,000 rpm and 20°C. […]

[1] = AUC sedimentation velocity of MRIP peptides alone (molar mass, sedimentation coefficient, oligomeric state); type: physicochemical
Source text: The RMSD of the fit was 0.008.
as §1
Sedimentation velocity experiments were done on a Beckman Instruments Optima XL-I analytical ultracentrifuge equipped with Rayleigh optics. The cells were equipped with sapphire windows and 12 mm charcoal-filled Epon centerpieces. Apparent sedimentation coefficient distribution patterns were computed by the time derivative method. Peptides were dialyzed against 50 mM potassium phosphate buffer (pH 7.4) containing 100 mM KCl, and 1 mM DTT at 4°C overnight and then subjected to AUC at 50,000 rpm and 20°C. Molar mass was computed from sedimentation velocity profiles using SedAnal, which uses a nonlinear least-squares curve fitting algorithm to fit data to solutions of the differential equation (the Lamm equation) describing sedimentation. Fits were performed on time difference data to remove the time-independent systematic baseline components. Values of s and D produced by the fitting procedure were substituted into the Svedberg equation to obtain the molar mass of the protein, M: M=RT/(1−ν¯ρ)s20,wo/D20,wo where ρ is the density of the buffer and ν¯ is the partial specific volume of the protein. Sednterp was employed to compute values of ρ and ν¯ from the amino acid sequence.

CCLR = assay: AUC interaction of MRIP peptides with MYPT1 peptide CCLR (residues 924–1030); type: binding; conditions: equimolar mixtures (MRIP^545-878 14 μM each; MRIP^724-878 30 μM each; MRIP^724-837 67 μM each) and 3-, 9-fold dilutions, pH 7.4, 100 mM KCl, 20°C
Procedure: AUC was performed to examine the interactions of MRIP^545-878, MRIP^724-878, or MRIP^724-837 individually with the MYPT1 peptide (residues 924–1030) containing a putative coiled coil domain (CC) and the leucine repeat region (LR), designated as CCLR.
Fig 3 All MRIP peptides bind to the C-terminal region of MYPT1, CCLR (residues 924–1030). Concentration-normalized time derivative g(s*) graphs of the MRIP peptides by themselves and in equimolar mixtures: Lines, CCLR (30 μM); +, individual MRIP peptides by themselves (MRIP^545-878, 14 μM; MRIP^724-878, 50 μM; MRIP^724-837, 67 μM); black filled-in circles, original equimolar mixtures (MRIP^545-878, 14 μM each; MRIP^724-878, 30 μM each; MRIP^724-837, 67 μM each); open circles, 3-fold dilutions; gray filled-in circles, 9-fold dilutions.
as §1, with “For the mutagenesis study of LR, the wild-type and mutant LR peptides were synthesized, purified by reverse-phase HPLC, and lyophilized to dryness at the peptide core in Boston Biomedical Research Institute.” left out

[2] = molecular target: the molecule itself; assay: AUC; sedimentation velocity of each MRIP peptide alone, three-fold serial dilutions (MRIP^545-878 1.5–13.6 μM, MRIP^724-878 4.7–42.3 μM, MRIP^724-837 7.5–67.1 μM); 50 mM potassium phosphate pH 7.4, 100 mM KCl, 1 mM DTT, 50,000 rpm, 20°C; global fitting with SedAnal; constant of MRIP^724-837: dimer to monomers

E996K: mutant LR peptide with same length as wild-type, substitutions for charged residues (ERRISKMEEELKMLPDLKADNQRLKDENGALIRVISKLSK)
main peak position of mixture with MRIP^724-878 (MRIP^724-878): shifted to the right, indicating binding

EtriQ: mutant LR in which glutamic acid residues 998–1000 were replaced by glutamine (ERRISEMQQQLKMLPDLKADNQRLKDENGALIRVISKLSK)
binding affinity toward MRIP^724-878, LR mutants (MRIP^724-878): significantly decreased binding affinity

EtriA: mutant LR in which glutamic acid residues 998–1000 were replaced by alanine (ERRISEMAAALKMLPDLKADNQRLKDENGALIRVISKLSK)
binding affinity toward MRIP^724-878, LR mutants (MRIP^724-878): significantly decreased binding affinity

LR^1001-1030: mutant LR peptide shorter than LR in length (LKMLPDLKADNQRLKDENGALIRVISKLSK)
binding affinity toward MRIP^724-878, LR mutants (MRIP^724-878): decreased

LR^1007-1028: mutant LR peptide shorter than LR in length (LKADNQRLKDENGALIRVISKL)
binding affinity toward MRIP^724-878, LR mutants (MRIP^724-878): decreased

R992D/R993D: mutant LR peptide with same length as wild-type, substitutions for charged residues (EDDISEMEEELKMLPDLKADNQRLKDENGALIRVISKLSK)
main peak position of mixture with MRIP^724-878 (MRIP^724-878): shifted to the right, indicating binding

LR^997-1030: mutant LR peptide shorter than LR in length (MEEELKMLPDLKADNQRLKDENGALIRVISKLSK)
binding affinity toward MRIP^724-878, LR mutants (MRIP^724-878): decreased

B1: MRIP^545-878: recombinant tag-free MRIP peptide, residues 545–878; CC1-CC4 (protein)
chain: WAEFRPIQQALAQERVGGVGPADTHEPLRPEAEPGELERERARRREERRKRFGMLDATDGPGTEDAALRMEVDRSPGLPMSDLKTHNVHVEIEQRWHQVETTPLREEKQVPIAPVHLSSEDGGDRLSTHELTSLLEKELEQSQKEASDLLEQNRLLQDQLRVALGREQSAREGYVLQATCERGFAAMEETHQKKIEDLQRQHQRELEKLREEKDRLLAEETAATISAIEAMKNAHREEMERELEKSQRSQISSVNSDVEALRRQYLEELQSVQRELEVLSEQYSQKCLENAHLAQALEAERQALRQCQRENQELNAHNQELNNRLAAEITRLRT
modifications: left off: chitin-binding domain (IMPACT kit, pTYB12), N-terminal, cleaved
notes: recombinant tag-free MRIP peptide, residues 545–878; CC1-CC4
molar mass ([1]; AUC sedimentation velocity, SedAnal global fit to two components (main component), 1.5–13.6 μM, 50 mM potassium phosphate pH 7.4, 100 mM KCl, 1 mM DTT, 50,000 rpm, 20°C, CL 0.95, min, 38.1, max, 40.9): 39.4 kDa
sedimentation coefficient ([1]; AUC sedimentation velocity, SedAnal global fit, two components (main component), 1.5–13.6 μM, pH 7.4, 100 mM KCl, 20°C, CL 0.95): 2.17±0.01 S
oligomeric state in solution ([1]; AUC sedimentation velocity, pH 7.4, 100 mM KCl, 20°C): forms a monomer in solution
concentration dependence of g(s*) curves ([1]; AUC, MRIP^545-878 1.5–13.6 μM, MRIP^724-878 4.7–42.3 μM, MRIP^724-837 7.5–67.1 μM, pH 7.4, 20°C): no-concentration dependence and the presence of one species in solution
binding to CCLR (shift in g(s*) curves) (CCLR): bind to CCLR

B2: MRIP^724-878 (myosin phosphatase-RhoA interacting protein, residues 724–878; CC2-CC4) (domain or fragment, UniProt Q6WCQ1 724-878, looked up)
chain: CERGFAAMEETHQKKIEDLQRQHQRELEKLREEKDRLLAEETAATISAIEAMKNAHREEMERELEKSQRSQISSVNSDVEALRRQYLEELQSVQRELEVLSEQYSQKCLENAHLAQALEAERQALRQCQRENQELNAHNQELNNRLAAEITRLRT
notes: Tight homodimer in solution by AUC; the forward primer puts an NdeI ATG before the codons GAGCGAGGGTTTGCAGCAATG; source: E. coli BL21 (DE3), purified (chitin beads, C8 reversed-phase HPLC)
stoichiometry N [2]: 2

B3: MRIP^724-837 (myosin phosphatase-RhoA interacting protein, residues 724–837; CC2-CC3) (domain or fragment, UniProt Q6WCQ1 724-837, looked up)
chain: CERGFAAMEETHQKKIEDLQRQHQRELEKLREEKDRLLAEETAATISAIEAMKNAHREEMERELEKSQRSQISSVNSDVEALRRQYLEELQSVQRELEVLSEQYSQKCLENAHL
notes: Monomer-dimer equilibrium in solution by AUC; source: E. coli BL21 (DE3), purified (chitin beads, C8 reversed-phase HPLC)
Kd [2]: 21 µM
stoichiometry N [2]: 2

Source: article PMC4596477, “Interaction of Myosin Phosphatase Target Subunit (MYPT1) with Myosin Phosphatase-RhoA Interacting Protein (MRIP): A Role of Glutamic Acids in the Interaction” (PLoS ONE, 2015)
